Assay results published in patent US20140044713A1 (KONINKLIJKE NEDERLANDSE AKADEMIE VAN WETENSCHAPPEN, published 2014).

Assays:
[1] = target: T1, LRP6 (endogenous) (human, UniProt O75581 20-1613); assay: TAP + mass spectrometry, HEK293 cells
T1 construct: whole, on cells

[2] = target: T2, Lgr4 (endogenous, or expression construct whose tag is not stated) (human, UniProt Q9BXB1 25-951); assay: TAP + mass spectrometry, HEK293 cells
T2 construct: whole, on cells; Endogenous protein of HEK293T / LS174T cells in TAP-MS; also called endogenous Lgr4

[3] = target: T3, LRP5 (endogenous) (human, UniProt O75197 32-1615); assay: TAP + mass spectrometry, HEK293 cells
T3 construct: whole, on cells
T3 sequence (O75197 32-1615): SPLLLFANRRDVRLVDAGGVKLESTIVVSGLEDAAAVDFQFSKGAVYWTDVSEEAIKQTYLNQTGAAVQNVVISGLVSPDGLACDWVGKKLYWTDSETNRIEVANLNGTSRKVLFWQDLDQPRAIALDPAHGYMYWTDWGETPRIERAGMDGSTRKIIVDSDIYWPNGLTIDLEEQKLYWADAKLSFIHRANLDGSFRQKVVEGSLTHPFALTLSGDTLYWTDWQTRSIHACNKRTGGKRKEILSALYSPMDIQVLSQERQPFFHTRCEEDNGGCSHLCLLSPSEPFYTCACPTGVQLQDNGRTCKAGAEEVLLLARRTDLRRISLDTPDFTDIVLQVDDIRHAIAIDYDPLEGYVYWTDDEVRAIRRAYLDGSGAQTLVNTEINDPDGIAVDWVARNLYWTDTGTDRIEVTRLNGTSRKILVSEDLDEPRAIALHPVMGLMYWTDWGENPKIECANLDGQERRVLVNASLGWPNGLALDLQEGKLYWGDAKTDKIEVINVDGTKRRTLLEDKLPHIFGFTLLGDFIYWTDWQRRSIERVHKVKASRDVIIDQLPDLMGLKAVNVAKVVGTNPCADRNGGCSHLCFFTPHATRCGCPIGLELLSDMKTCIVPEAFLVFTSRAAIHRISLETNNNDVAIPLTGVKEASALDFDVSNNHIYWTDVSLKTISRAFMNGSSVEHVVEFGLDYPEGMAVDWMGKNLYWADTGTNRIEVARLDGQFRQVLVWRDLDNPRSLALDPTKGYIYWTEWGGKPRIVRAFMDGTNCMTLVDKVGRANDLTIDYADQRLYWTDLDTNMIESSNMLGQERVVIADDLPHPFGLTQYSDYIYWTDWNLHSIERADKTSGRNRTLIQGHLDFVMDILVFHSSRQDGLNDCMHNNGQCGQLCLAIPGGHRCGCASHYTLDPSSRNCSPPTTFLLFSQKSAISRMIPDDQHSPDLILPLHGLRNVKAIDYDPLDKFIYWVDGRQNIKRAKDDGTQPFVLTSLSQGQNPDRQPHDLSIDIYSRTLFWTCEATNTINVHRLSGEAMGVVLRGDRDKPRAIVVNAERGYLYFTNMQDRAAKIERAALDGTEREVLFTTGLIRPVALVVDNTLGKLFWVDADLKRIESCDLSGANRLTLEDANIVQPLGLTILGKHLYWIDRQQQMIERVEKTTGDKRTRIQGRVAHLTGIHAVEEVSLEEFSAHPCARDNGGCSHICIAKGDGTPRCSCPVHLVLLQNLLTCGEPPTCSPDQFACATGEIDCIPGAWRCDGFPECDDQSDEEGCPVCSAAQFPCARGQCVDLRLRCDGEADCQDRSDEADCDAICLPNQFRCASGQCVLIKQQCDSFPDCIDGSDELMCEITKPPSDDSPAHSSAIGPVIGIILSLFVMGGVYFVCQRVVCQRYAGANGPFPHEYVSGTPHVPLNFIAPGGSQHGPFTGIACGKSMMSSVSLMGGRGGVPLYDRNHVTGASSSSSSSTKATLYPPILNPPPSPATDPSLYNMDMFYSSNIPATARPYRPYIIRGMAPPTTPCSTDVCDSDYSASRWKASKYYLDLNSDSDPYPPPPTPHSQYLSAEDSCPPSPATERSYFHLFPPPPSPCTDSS

[4] = target: T2, Lgr4 (endogenous, or expression …); assay: TAP (anti-FLAG, anti-HA) + mass spectrometry, 293T cells incubated with the soluble tagged bait, Exp 8
Experimental: (§1) Left panel (Exps 1-7): HEK293T cells were transiently transfected, and LS174T cells were stably, transfected with the indicated tagged proteins. Right panel (Exps 8-9): HEK293T cells were incubated with the indicated tagged soluble proteins at 1 μg/ml. Sequential immunoprecipitation was performed by anti-FLAG and anti-HA antibodies and the associated complexes were analysed by mass spectrometry. Number of assigned spectra, number of unique peptides and the MASCOT Protein Score are given for selected identified proteins.

[5] = target: T4, Frz7 (endogenous, LS174T cells) (human, UniProt O75084 33-574); assay: TAP (anti-FLAG, anti-HA) + mass spectrometry, bait stably expressed in LS174T cells, Exp 3-6
T4 construct: whole, on cells
Experimental: as §1

T1 sequence (O75581 20-1613): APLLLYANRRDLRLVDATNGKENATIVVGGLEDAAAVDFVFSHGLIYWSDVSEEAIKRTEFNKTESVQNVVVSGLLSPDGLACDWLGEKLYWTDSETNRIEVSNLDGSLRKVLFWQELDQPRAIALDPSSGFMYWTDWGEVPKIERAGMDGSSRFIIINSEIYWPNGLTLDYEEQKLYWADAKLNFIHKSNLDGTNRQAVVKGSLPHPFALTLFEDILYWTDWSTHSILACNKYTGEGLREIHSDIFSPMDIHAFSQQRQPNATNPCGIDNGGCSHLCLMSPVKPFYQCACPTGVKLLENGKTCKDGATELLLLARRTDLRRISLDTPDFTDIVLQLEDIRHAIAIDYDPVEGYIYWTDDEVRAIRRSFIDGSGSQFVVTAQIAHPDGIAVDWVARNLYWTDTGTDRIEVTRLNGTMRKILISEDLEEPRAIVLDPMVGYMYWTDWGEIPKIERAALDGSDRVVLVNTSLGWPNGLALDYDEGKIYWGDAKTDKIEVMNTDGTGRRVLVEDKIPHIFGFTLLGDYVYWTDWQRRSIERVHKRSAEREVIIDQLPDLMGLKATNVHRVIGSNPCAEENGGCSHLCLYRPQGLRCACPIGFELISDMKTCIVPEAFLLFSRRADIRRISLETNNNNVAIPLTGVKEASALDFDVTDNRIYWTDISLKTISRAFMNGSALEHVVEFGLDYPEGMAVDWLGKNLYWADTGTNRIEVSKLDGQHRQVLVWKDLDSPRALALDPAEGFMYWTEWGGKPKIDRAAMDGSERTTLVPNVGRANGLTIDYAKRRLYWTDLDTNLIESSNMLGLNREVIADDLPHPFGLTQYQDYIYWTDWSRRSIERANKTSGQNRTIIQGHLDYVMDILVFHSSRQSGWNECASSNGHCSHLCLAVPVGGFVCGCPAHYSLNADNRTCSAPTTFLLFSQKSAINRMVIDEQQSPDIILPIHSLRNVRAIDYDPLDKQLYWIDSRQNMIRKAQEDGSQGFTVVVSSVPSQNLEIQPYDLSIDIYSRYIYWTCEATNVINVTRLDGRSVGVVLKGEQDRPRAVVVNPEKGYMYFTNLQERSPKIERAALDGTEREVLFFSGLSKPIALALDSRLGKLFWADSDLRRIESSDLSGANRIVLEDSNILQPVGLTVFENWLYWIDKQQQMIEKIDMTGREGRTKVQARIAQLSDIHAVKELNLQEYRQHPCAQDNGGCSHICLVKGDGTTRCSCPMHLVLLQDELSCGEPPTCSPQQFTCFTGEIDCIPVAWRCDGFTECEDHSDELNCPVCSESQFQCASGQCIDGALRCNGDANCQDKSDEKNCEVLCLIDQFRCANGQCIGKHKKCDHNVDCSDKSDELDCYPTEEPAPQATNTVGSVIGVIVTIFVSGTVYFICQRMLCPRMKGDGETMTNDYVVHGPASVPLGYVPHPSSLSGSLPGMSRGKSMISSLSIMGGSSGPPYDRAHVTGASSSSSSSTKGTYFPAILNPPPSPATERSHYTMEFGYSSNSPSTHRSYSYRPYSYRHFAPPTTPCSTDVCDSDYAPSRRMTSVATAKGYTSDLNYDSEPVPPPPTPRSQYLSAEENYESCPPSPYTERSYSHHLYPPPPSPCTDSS

| Binder | binding result [1] | binding result [2] | binding result [3] | binding result [4] | binding result [5] |
| --- | --- | --- | --- | --- | --- |
| FBXW4 (other, not shown: small tags and cut ends, TAP-MS bait) MAAAAGEEEEEEEAARESAARPAAGPALWRLPEELLLLICSYLDMRALGRLAQVCRWLRRFTSCDLLWRRIARASLNSGFTRLGTDLMTSVPVKERVKVSQNWRLGRCREGILLKWRCSQMPWMQLEDDSLYISQANFILAYQFRPDGASLNRRPLGVFAGHDEDVCHFVLANSHIVSAGGDGKIGIHKIHSTFTVKYSAHEQEVNCVDCKGGIIVSGSRDRTAKVWPLASGRLGQCLHTIQTEDRVWSIAISPLLSSFVTGTACCGHFSPLRIWDLNSGQLMTHLGSDFPPGAGVLDVMYESPFTLLSCGYDTYVRYWDLRTSVRKCVMEWEEPHDSTLYCLQTDGNHLLATGSSYYGVVRLWDRRQRACLHAFPLTSTPLSSPVYCLRLTTKHLYAALSYNLHVLDFQNP | no binding | no binding | no binding | – | – |
| FLAG/HA-tagged Lgr5 (receptor, human, UniProt O75473 22-907, looked up, whole, on cells; also called Lgr5 bait; FH-tagged human Lgr5; not shown: FLAG/HA double tag) GSSPRSGVLLRGCPTHCHCEPDGRMLLRVDCSDLGLSELPSNLSVFTSYLDLSMNNISQLLPNPLPSLRFLEELRLAGNALTYIPKGAFTGLYSLKVLMLQNNQLRHVPTEALQNLRSLQSLRLDANHISYVPPSCFSGLHSLRHLWLDDNALTEIPVQAFRSLSALQAMTLALNKIHHIPDYAFGNLSSLVVLHLHNNRIHSLGKKCFDGLHSLETLDLNYNNLDEFPTAIRTLSNLKELGFHSNNIRSIPEKAFVGNPSLITIHFYDNPIQFVGRSAFQHLPELRTLTLNGASQITEFPDLTGTANLESLTLTGAQISSLPQTVCNQLPNLQVLDLSYNLLEDLPSFSVCQKLQKIDLRHNEIYEIKVDTFQQLLSLRSLNLAWNKIAIIHPNAFSTLPSLIKLDLSSNLLSSFPITGLHGLTHLKLTGNHALQSLISSENFPELKVIEMPYAYQCCAFGVCENAYKISNQWNKGDNSSMDDLHKKDAGMFQAQDERDLEDFLLDFEEDLKALHSVQCSPSPGPFKPCEHLLDGWLIRIGVWTIAVLALTCNALVTSTVFRSPLYISPIKLLIGVIAAVNMLTGVSSAVLAGVDAFTFGSFARHGAWWENGVGCHVIGFLSIFASESSVFLLTLAALERGFSVKYSAKFETKAPFSSLKVIILLCALLALTMAAVPLLGGSKYGASPLCLPLPFGEPSTMGYMVALILLNSLCFLMMTIAYTKLYCNLDKGDLENIWDCSMVKHIALLLFTNCILNCPVAFLSFSSLINLTFISPEVIKFILLVVVPLPACLNPLLYILFNPHFKEDLVSLRKQTYVWTRSKHPSLMSINSDDVEKQSCDSTQALVTFTSSSITYDLPPSSVPSPAYPVTESCHLSSVAFVPCL | – | – | – | – | no binding |
| FBXL2 (other, not shown: small tags and cut ends, TAP-MS bait) MVFSNNDEGLINKKLPKELLLRIFSFLDIVTLCRCAQISKAWNILALDGSNWQRIDLFNFQTDVEGRVVENISKRCGGFLRKLSLRGCIGVGDSSLKTFAQNCRNIEHLNLNGCTKITDSTCYSLSRFCSKLKHLDLTSCVSITNSSLKGISEGCRNLEYLNLSWCDQITKDGIEALVRGCRGLKALLLRGCTQLEDEALKHIQNYCHELVSLNLQSCSRITDEGVVQICRGCHRLQALCLSGCSNLTDASLTALGLNCPRLQILEAARCSHLTDAGFTLLARNCHELEKMDLEECILITDSTLIQLSIHCPKLQALSLSHCELITDDGILHLSNSTCGHERLRVLELDNCLLITDVALEHLENCRGLERLELYDCQQVTRAGIKRMRAQLPHVKVHAYFAPVTPPTAVAGSGQRLCRCCVIL | no binding | no binding | no binding | – | – |
| eEF2K (enzyme, not shown: small tags and cut ends, TAP-MS bait) ADEDLIFRLEGVDGGQSPRAGHDGDSDGDSDDEEGYFICPITDDPSSNQNVNSKVNKYYSNLTKSERYSSSGSPANSFHFKEAWKHAIQKAKHMPDPWAEFHLEDIATERATRHRYNAVTGEWLDDEVLIKMASQPFGRGAMRECFRTKKLSNFLHAQQWKGASNYVAKRYIEPVDRDVYFEDVRLQMEAKLWGEEYNRHKPPKQVDIMQMCIIELKDRPGKPLFHLEHYIEGKYIKYNSNSGFVRDDNIRLTPQAFSHFTFERSGHQLIVVDIQGVGDLYTDPQIHTETGTDFGDGNLGVRGMALFFYSHACNRICESMGLAPFDLSPRERDAVNQNTKLLQSAKTILRGTEEKCGSPQVRTLSGSRPPLLRPLSENSGDENMSDVTFDSLPSSPSSATPHSQKLDHLHWPVFSDLDNMASRDHDHLDNHRESENSGDSGYPSEKRGELDDPEPREHGHSYSNRKYESDEDSLGSSGRVCVEKWNLLNSSRLHLPRASAVALEVQRLNALDLEKKIGKSILGKVHLAMVRYHEGGRFCEKGEEWDQESAVFHLEHAANLGELEAIVGLGLMYSQLPHHILADVSLKETEENKTKGFDYLLKAAEAGDRQSMILVARAFDSGQNLSPDRCQDWLEALHWYNTALEMTDCDEGGEYDGMQDEPRYMMLAREAEMLFTGGYGLEKDPQRSGDLYTQAAEAAMEAMKGRLANQYYQKAEEAWAQMEE | no binding | no binding | no binding | – | – |

The next lines start with the values.

| binding result [1] | binding result [2] | binding result [3] | binding result [4] | binding result [5] | Binder |
| --- | --- | --- | --- | --- | --- |
| no binding | no binding | no binding | – | – | EMI1 (other, not shown: small tags and cut ends, TAP-MS bait) MSRRPCSCALRPPRCSCSASPSAVTAAGRPRPSDSCKEESSTLSVKMKCDFNCNHVHSGLKLVKPDDIGRLVSYTPAYLEGSCKDCIKDYERLSCIGSPIVSPRIVQLETESKRLHNKENQHVQQTLNSTNEIEALETSRLYEDSGYSSFSLQSGLSEHEEGSLLEENFGDSLQSCLLQIQSPDQYPNKNLLPVLHFEKVVCSTLKKNAKRNPKVDREMLKEIIARGNFRLQNIIGRKMGLECVDILSELFRRGLRHVLATILAQLSDMDLINVSKVSTTWKKILEDDKGAFQLYSKAIQRVTENNNKFSPHASTREYVMFRTPLASVQKSAAQTSLKKDAQTKLSNQGDQKGSTYSRHNEFSEVAKTLKKNESLKACIRCNSPAKYDCYLQRATCKREGCGFDYCTKCLCNYHTTKDCSDGKLLKASCKIGPLPGTKKSKKNLRRL |
| – | – | – | no binding (tested: 1 µg/ml) | – | double (Flag-HA)-tagged version of human Dkk1 (Dkk1-FH) (ligand, UniProt O94907 32-266, looked up, not shown: Flag-HA double tag) TLNSVLNSNAIKNLPPPLGGAAGHPGSAVSAAPGILYPGGNKYQTIDNYQPYPCAEDEECGTDEYCASPTRGGDAGVQICLACRKRRKRCMRHAMCCPGNYCKNGICVSSDQNHFRGEIEETITESFGNDHSTLDGYSRRTTLSSKMYHTKGQEGSVCLRSSDCASGLCCARHFWSKICKPVLKEGQVCTKHRRKGSHGLEIFQRCYCGEGLSCRIQKDHHQASNSSRLHTCQRH |
| no binding | no binding | no binding | – | – | KCTD21 (other, not shown: small tags and cut ends, TAP-MS bait) MSDPITLNVGGKLYTTSLATLTSFPDSMLGAMFSGKMPTKRDSQGNCFIDRDGKVFRYILNFLRTSHLDLPEDFQEMGLLRREADFYQVQPLIEALQEKEVELSKAEKNAMLNITLNQRVQTVHFTVREAPQIYSLSSSSMEVFNANIFSTSCLFLKLLGSKLFYCSNGNLSSITSHLQDPNHLTLDWVANVEGLPEEEYTKQNLKRLWVVPANKQINSFQVFVEEVLKIALSDGFCIDSSHPHALDFMNNKIIRLIRYR |
| no binding | no binding | no binding | – | – | UCHL1 (enzyme, not shown: small tags and cut ends, TAP-MS bait) MQLKPMEINPEMLNKVLSRLGVAGQWRFVDVLGLEEESLGSVPAPACALLLLFPLTAQHENFRKKQIEELKGQEVSPKVYFMKQTIGNSCGTIGLIHAVANNQDKLGFEDGSVLKQFLSETEKMSPEDRAKCFEKNEAIQAAHDAVAQEGQCRVDDKVNFHFILFNNVDGHLYELDGRMPFPVNHGASSEDTLLKDAAKVCREFTEREQGEVRFSAVALC |
| no binding | no binding | no binding | – | – | FBXW5 (other, not shown: small tags and cut ends, TAP-MS bait) MDEGGTPLLPDSLVYQIFLSLGPADVLAAGLVCRQWQAVSRDEFLWREQFYRYYQVARDVPRHPAAMSWYEEFQRLYDTVPCVEVQTLREHTDQVLHLSFSHSGYQFASCSKDCTVKIWSNDLTISLLHSADMRPYNWSYTQFSQFNKDDSLLLASGVFLGPHNSSSGEIAVISLDSFALLSRVRNKPYDVFGCWLTETSLISGNLHRIGDITSCSVLWLNNAFQDVESENVNVVKRLFKIQNLNASTVRTVMVADCSRFDSPDLLLEAGDPATSPCRIFDLGSDNEEVVAGPAPAHAKEGLRHFLDRVLEGRAQPQLSERMLETKVAELLAQGHTKPPERSATGAKSKYLIFTTGCLTYSPHQIGIKQILPHQMTTAGPVLGEGRGSDAFFDALDHVIDIHGHIIGMGLSPDNRYLYVNSRAWPNGAVVADPMQPPPIAEEIDLLVFDLKTMREVRRALRAHRAYTPNDECFFIFLDVSRDFVASGAEDRHGYIWDRHYNICLARLRHEDVVNSVVFSPQEQELLLTASDDATIKAWRSPRTMRVLQAPRPRPRTFFSWLASQRR |
